Here are results for one molecule from patent US20260069690A1.

For this test, the target named is S100A11 Q22R (mutant 25mer, peptide 60 / P60; residues not given) peptide on HLA-DR (human). Description: MSGV1 TCR-transduced healthy-donor peripheral blood T cells with B cells pulsed with the Q22R peptide. Secretion was inhibited by anti-HLA-DR/-DP/-DQ but not by anti-HLA-ABC. TNFa and Granzyme B were also released. The TIL clone released IFNg, TNFa and Granzyme B, which anti-HLA-DR blocked but anti-HLA-DP and anti-HLA-DQ did not.; full-length, on cells. Particulars: chains Valpha:Vbeta.

A value given as a limit tells only on which side of the number the result lay.

B1: S100A11^Q22R-specific TCR (protein)
chain 1: SQKIEQNSEALNIQEGKTATLTCNYTNYSPAYLQWYRQDPGRGPVFLLLIRENEKEKRKERLKVTFDTTLKQSLFHITASQPADSATYLCALDFTGGGNKLTFGTGTQLKVEL
chain 2: NAGVMQNPRHLVRRRGQEARLRCSPMKGHSHVYWYRQLPEEGLKFMVYLQKENIIDESGMPKERFSAEFPKEGPSILRIQQVVRGDSAAYFCASSPSTGGIGDTQYFGPGTRLTVL
In the case of B1, the IFNg released was above 15000 pg/mL.
